Measured values reported in patent US20220242962A1 (APTEVO RESEARCH AND DEVELOPMENT, published 2022).
Where a chain is given by its changes, count along the chain named. Blank lines part the entries; values can stand above or below the binder they belong to.

How the values were obtained:
Full-length Cyno 4-1BB = biological target: T1, Full-length Cyno 4-1BB (cynomolgus monkey, UniProt Q07011 24-255 (human entry)); assay: flow cytometry on Jurkat cells transfected with cynomolgus 4-1BB, goat anti-human Fc secondary antibody, MFI (Mean)
T1 construct: on Jurkat or CHO cells; also called FOB006; cynomolgus 4-1BB
T1 chain: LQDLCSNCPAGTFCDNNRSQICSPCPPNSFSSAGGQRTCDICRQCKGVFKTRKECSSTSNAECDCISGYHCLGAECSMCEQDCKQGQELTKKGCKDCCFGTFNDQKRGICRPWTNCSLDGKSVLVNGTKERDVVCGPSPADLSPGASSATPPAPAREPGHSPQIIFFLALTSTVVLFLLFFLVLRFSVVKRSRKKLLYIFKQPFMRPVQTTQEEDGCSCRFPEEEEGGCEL
Method: (§1) Serial dilutions of ADAPTIR™ constructs were incubated with transfected target cells and subsequently labelled with a fluorescently-conjugated goat-a-human Fc secondary antibody. […] (See Example 25.)

Full-length Cyno OX40 = biological target: T2, Full-length Cyno OX40 (cynomolgus monkey, UniProt P43489 29-277 (human entry)); assay: flow cytometry on CHOK1SV cells transfected with cynomolgus OX40, goat anti-human Fc secondary antibody, MFI (Mean)
T2 construct: on CHO-K1SV cells; also called OXF004; cynomolgus OX40
T2 chain: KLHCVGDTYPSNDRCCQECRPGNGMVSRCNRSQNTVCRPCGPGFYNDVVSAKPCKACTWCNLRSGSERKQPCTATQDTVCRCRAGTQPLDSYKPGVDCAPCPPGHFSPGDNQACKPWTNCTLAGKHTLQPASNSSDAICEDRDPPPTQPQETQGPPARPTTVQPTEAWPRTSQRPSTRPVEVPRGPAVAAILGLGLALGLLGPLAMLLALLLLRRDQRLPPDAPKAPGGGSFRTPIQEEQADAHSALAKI
Method: as §1

Full-length Human OX40 = biological target: T3, Full-length Human OX40 (human, UniProt P43489 29-277); assay: cell-based or functional assay
T3 sequence: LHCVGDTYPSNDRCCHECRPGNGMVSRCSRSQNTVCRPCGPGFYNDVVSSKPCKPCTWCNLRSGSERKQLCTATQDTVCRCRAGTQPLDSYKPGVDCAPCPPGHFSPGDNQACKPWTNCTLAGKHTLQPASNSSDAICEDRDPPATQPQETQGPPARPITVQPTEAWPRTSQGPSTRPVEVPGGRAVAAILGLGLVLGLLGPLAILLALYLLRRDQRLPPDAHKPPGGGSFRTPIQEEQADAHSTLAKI

Full-length Human 4-1BB = Full-length Human 4-1BB (human, UniProt Q07011 24-255); assay: cell-based or functional assay
Cyno OX40-AFH = biological target: T4, Cyno OX40-AFH (cynomolgus monkey); assay: SPR (Biacore 8K), construct captured, monovalent ECD
T4 construct: entry includes the tags; also called OXF005; cyno OX40 ECD
T4 chain: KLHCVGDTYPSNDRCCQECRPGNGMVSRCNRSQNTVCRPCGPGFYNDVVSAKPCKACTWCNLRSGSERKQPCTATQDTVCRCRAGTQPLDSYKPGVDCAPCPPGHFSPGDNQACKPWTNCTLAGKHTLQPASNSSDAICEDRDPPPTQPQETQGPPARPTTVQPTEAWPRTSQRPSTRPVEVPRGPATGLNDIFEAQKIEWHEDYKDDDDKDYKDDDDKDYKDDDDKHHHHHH
Method: (§2) Mouse anti-human IgG (GE, BR-1008-39) at 25 μg/ml in 10 mM sodium acetate pH 5.0 was immobilized at a density of ˜10,000 response units (RU) onto each flow cell of a CM5 research-grade sensor chip (GE) by standard amine coupling chemistry. Each binding protein at approximately 100 nM in HBS-EP+ with 0.2% BSA buffer was captured in a flow cell with the immobilized anti-human IgG at a flow rate of 10 μL/min for 20 seconds, leaving one flow cell surface unmodified as the reference. Using a single-cycle kinetics mode, five different concentrations of ECD were sequentially injected through each flow cell at 30 μL/min for 300 seconds followed by a 600 second dissociation period. Regeneration was achieved by injection of 3 M MgCl₂ at a flow rate of 30 μL/min for 30 seconds followed by HBS-EP+ with 0.2% BSA buffer stabilization for 1 min.
(§3) Sensorgrams obtained from kinetic SPR measurements were analyzed by the double subtraction method. The signal from the reference flow cell was subtracted from the analyte binding response obtained from flow cells with immobilized or captured ligands. Buffer reference responses were then averaged from multiple injections. The averaged buffer reference responses were then subtracted from analyte binding responses, and the final double-referenced data were analyzed with Biacore T200 Evaluation software (2.0, GE), globally fitting data to derive kinetic parameters. All sensorgrams were fitted using a simple one-to-one binding model.
(§4) Using the BIACORE 8K SPR system, the affinity of these constructs for human and cyno 4-1BB, and human and cyno OX40 ECD, were determined using the methods described above. Monovalent binding affinity was determined by capturing the ADAPTIR™ bispecific construct on the chip and injecting monovalent ECD of the target at multiple concentrations.

Human OX40 ECD-AFH = biological target: T5, Human OX40 ECD-AFH (human); assay: as above
T5 construct: ECD'; entry includes the C-terminal tags; also called OXF003; Human OX40 ECD-avi-flag-his
T5 chain: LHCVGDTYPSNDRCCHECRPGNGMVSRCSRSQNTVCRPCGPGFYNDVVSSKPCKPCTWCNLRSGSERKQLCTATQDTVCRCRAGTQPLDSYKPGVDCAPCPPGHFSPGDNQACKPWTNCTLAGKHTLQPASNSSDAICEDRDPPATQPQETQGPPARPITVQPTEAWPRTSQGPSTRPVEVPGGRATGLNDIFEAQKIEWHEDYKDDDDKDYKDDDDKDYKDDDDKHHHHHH
Method: as §2, §3, §4

Human 4-1BB ECD-AFH = biological target: T6, Human 4-1BB ECD-AFH (human); assay: as above
T6 construct: entry includes the tags; also called FOB003; HUMAN CD137 ECD-AVI-FLAG-HIS
Method: as §2, §3, §4

Cyno 4-1BB ECD-AFH = biological target: T7, Cyno 4-1BB ECD-AFH (cynomolgus monkey); assay: as above
T7 construct: entry includes the tags; also called FOB004; Cyno CD137 ECD-avi-flag-his
T7 chain: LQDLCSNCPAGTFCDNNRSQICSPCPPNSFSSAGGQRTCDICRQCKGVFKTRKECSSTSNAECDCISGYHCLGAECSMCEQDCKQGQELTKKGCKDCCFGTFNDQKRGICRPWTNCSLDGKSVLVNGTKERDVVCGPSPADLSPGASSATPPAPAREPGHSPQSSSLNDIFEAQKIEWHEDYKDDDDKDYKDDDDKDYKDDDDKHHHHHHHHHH
Method: as §2, §3, §4

EC50 (read off the curve) (Full-length Cyno 4-1BB): ~0.3 nM
EC50 (read off the curve) (Full-length Cyno OX40): 1 to 2 nM
OX40 Reporter Assay EC50 (Full-length Human OX40): 0.017 nM
OX40 Reporter Assay Max induction (Full-length Human OX40): 5.95e+06
4-1BB Reporter Assay EC50 (Full-length Human 4-1BB): 0.019 nM
4-1BB Reporter Assay Max induction (Full-length Human 4-1BB): 1.39e+06
Kd (Cyno OX40-AFH): < 1 nM
koff (Cyno OX40-AFH): 0.00027 s⁻¹
kon (Cyno OX40-AFH): 1e+06 M⁻¹ s⁻¹
Kd (Human OX40 ECD-AFH): < 1 nM
koff (Human OX40 ECD-AFH): 0.00044 s⁻¹
kon (Human OX40 ECD-AFH): 880000 M⁻¹ s⁻¹
Kd (Human 4-1BB ECD-AFH): 17 nM
koff (Human 4-1BB ECD-AFH): 0.0046 s⁻¹
kon (Human 4-1BB ECD-AFH): 270000 M⁻¹ s⁻¹
Kd (Cyno 4-1BB ECD-AFH): 81 nM
koff (Cyno 4-1BB ECD-AFH): 0.0079 s⁻¹
kon (Cyno 4-1BB ECD-AFH): 98000 M⁻¹ s⁻¹
B1: FXX01116 (bispecific antibody)
chain: EVQLVQSGAEVKKPGASVKVSCKASGYTFTSYWMNWVRQAPGQGLEWMGNIYPSGGSTNYAQKFQGRVTMTVDTSTSTVYMELSSLRSEDTAVYYCASFSDGYYAYAMDYWGQGTLVTVSSGGGGSGGGGSGGGGSGGGGSEIVMTQSPATLSLSPGERATLSCRASQSVSSYLNWYQQKPGQAPRLLIYYASRRHTGIPARFSGSGSGTDFTLTISSLQPEDFAVYYCQQGYNLPYTFGQGTKVEIKEPKSSDKTHTCPPCPAPPAAAPSVFLFPPKPKDTLMISRTPEVTCVVVDVSHEDPEVKFNWYVDGVEVHNAKTKPREEQYNSTYRVVSVLTVLHQDWLNGKEYKCAVSNKALPAPIEKTISKAKGQPREPQVYTLPPSRDELTKNQVSLTCLVKGFYPSDIAVEWESNGQPENNYKTTPPVLDSDGSFFLYSKLTVDKSRWQQGNVFSCSVMHEALHNHYTQKSLSLSPGGGGSPSSYVLTQPPSVSVAPGQTARITCGGNNIGSKSVNWFQQKPGQAPVLVVYDDSGRPSGVPSRFSGSTSGNTATLTISRVEAGDEADYYCQVWDSSSDHVVFGGGTKLTVLGGGGSGGGGSGGGGSGGGGSQVQLVESGGGVVQPGRSLRLSCAASGFTLSYYGMHWVRQAPGKGLEWVAAISHDGSDKYYADSVKGRFTISRDNSKNRLYLQMNSLRAEDTAVYYCSNDQFDPWGQGTLVTVSSR
notes: ADAPTIR anti-4-1BB x anti-OX40, pI variant

EC50 (read off the curve) (Full-length Cyno 4-1BB): ~0.3 nM
EC50 (read off the curve) (Full-length Cyno OX40): 1 to 2 nM
OX40 Reporter Assay EC50 (Full-length Human OX40): 0.016 nM
OX40 Reporter Assay Max induction (Full-length Human OX40): 6.28e+06
4-1BB Reporter Assay EC50 (Full-length Human 4-1BB): 0.018 nM
4-1BB Reporter Assay Max induction (Full-length Human 4-1BB): 1.38e+06
Kd (Cyno OX40-AFH): < 1 nM
koff (Cyno OX40-AFH): 0.00024 s⁻¹
kon (Cyno OX40-AFH): 1.1e+06 M⁻¹ s⁻¹
Kd (Human OX40 ECD-AFH): < 1 nM
koff (Human OX40 ECD-AFH): 0.00031 s⁻¹
kon (Human OX40 ECD-AFH): 840000 M⁻¹ s⁻¹
Kd (Human 4-1BB ECD-AFH): 17 nM
koff (Human 4-1BB ECD-AFH): 0.0046 s⁻¹
kon (Human 4-1BB ECD-AFH): 270000 M⁻¹ s⁻¹
Kd (Cyno 4-1BB ECD-AFH): 80 nM
koff (Cyno 4-1BB ECD-AFH): 0.0077 s⁻¹
kon (Cyno 4-1BB ECD-AFH): 96000 M⁻¹ s⁻¹
B2: FXX01118 (bispecific antibody)
chain: B1 chain with Q500K, V541I, S543A
notes: as for B1

EC50 (read off the curve) (Full-length Cyno 4-1BB): ~0.3 nM
EC50 (read off the curve) (Full-length Cyno OX40): 1 to 2 nM
OX40 Reporter Assay EC50 (Full-length Human OX40): 0.019 nM
OX40 Reporter Assay Max induction (Full-length Human OX40): 6.17e+06
4-1BB Reporter Assay EC50 (Full-length Human 4-1BB): 0.014 nM
4-1BB Reporter Assay Max induction (Full-length Human 4-1BB): 1.45e+06
Kd (Cyno OX40-AFH): < 1 nM
koff (Cyno OX40-AFH): 0.00031 s⁻¹
kon (Cyno OX40-AFH): 870000 M⁻¹ s⁻¹
Kd (Human OX40 ECD-AFH): < 1 nM
koff (Human OX40 ECD-AFH): 0.00057 s⁻¹
kon (Human OX40 ECD-AFH): 790000 M⁻¹ s⁻¹
Kd (Human 4-1BB ECD-AFH): 17 nM
koff (Human 4-1BB ECD-AFH): 0.0045 s⁻¹
kon (Human 4-1BB ECD-AFH): 260000 M⁻¹ s⁻¹
Kd (Cyno 4-1BB ECD-AFH): 77 nM
koff (Cyno 4-1BB ECD-AFH): 0.008 s⁻¹
kon (Cyno 4-1BB ECD-AFH): 100000 M⁻¹ s⁻¹
B3: FXX01112 (bispecific antibody)
chain: B1 chain with R690T
notes: as for B1

EC50 (read off the curve) (Full-length Cyno 4-1BB): ~0.3 nM
EC50 (read off the curve) (Full-length Cyno OX40): 1 to 2 nM
OX40 Reporter Assay EC50 (Full-length Human OX40): 0.018 nM
OX40 Reporter Assay Max induction (Full-length Human OX40): 6.22e+06
4-1BB Reporter Assay EC50 (Full-length Human 4-1BB): 0.02 nM
4-1BB Reporter Assay Max induction (Full-length Human 4-1BB): 1.41e+06
Kd (Cyno OX40-AFH): < 1 nM
koff (Cyno OX40-AFH): 0.0002 s⁻¹
kon (Cyno OX40-AFH): 1e+06 M⁻¹ s⁻¹
Kd (Human OX40 ECD-AFH): < 1 nM
koff (Human OX40 ECD-AFH): 0.0003 s⁻¹
kon (Human OX40 ECD-AFH): 970000 M⁻¹ s⁻¹
Kd (Human 4-1BB ECD-AFH): 17 nM
koff (Human 4-1BB ECD-AFH): 0.0042 s⁻¹
kon (Human 4-1BB ECD-AFH): 250000 M⁻¹ s⁻¹
Kd (Cyno 4-1BB ECD-AFH): 76 nM
koff (Cyno 4-1BB ECD-AFH): 0.0072 s⁻¹
kon (Cyno 4-1BB ECD-AFH): 96000 M⁻¹ s⁻¹
B4: FXX01117 (bispecific antibody)
chain: B1 chain with V541I, S543K
notes: as for B1
